The values below are quoted from earlier work in article PMC4623992.

In this series the target is TLR4 (Homo sapiens) (UniProt O00206).
UniProt O00206, sequence (O00206 24-631): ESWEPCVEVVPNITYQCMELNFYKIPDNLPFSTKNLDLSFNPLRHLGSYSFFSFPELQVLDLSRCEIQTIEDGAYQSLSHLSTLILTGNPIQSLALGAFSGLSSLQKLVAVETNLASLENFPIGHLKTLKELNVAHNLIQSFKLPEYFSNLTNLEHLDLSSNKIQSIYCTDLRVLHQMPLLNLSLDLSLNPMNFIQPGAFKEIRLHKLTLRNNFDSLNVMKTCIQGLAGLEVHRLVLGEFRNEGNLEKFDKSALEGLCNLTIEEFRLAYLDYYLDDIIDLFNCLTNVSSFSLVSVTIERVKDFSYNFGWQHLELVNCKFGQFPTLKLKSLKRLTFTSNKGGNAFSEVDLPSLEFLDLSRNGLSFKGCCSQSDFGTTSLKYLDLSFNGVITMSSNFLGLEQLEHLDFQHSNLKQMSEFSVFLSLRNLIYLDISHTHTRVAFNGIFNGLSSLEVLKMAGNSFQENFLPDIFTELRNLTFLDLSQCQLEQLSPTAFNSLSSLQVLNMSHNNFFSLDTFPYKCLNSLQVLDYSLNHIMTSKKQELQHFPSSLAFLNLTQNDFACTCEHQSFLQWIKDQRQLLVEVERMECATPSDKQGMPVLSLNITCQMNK

On to MD-2 (from UniProt Q9Y6Y9), for which the Kd – broadly, a measure of binding affinity in units of concentration – was 0.012 µM.
